Test results taken from US20100260763A1 (DOMANTIS, published 2010).
Values belong to the binder of their own block, whether it stands above or below them.

How the values were obtained:
recombinant human VEGF [1] = target: T1, recombinant human VEGF (human, UniProt P15692-4 27-191, limits assumed, biotinylated in the selections, phage ELISA and BIAcore screening); assay: BIAcore kinetics
T1 construct: also called hVEGF; VEGFA

recombinant human VEGF [2] = target: T1, recombinant human VEGF; assay: receptor binding assay
recombinant human VEGF [3] = target: T1, recombinant human VEGF; assay: RBA assay; taken as the Fc fusion of the row
[4] = target: the molecule itself; assay: analytical ultracentrifugation, sedimentation velocity; monomer/dimer self-association
[5] = target: the molecule itself; assay: analytical ultracentrifugation, sedimentation equilibrium; monomer/dimer self-association
TNFR1-FC fusion [6] = target: T2, TNFR1-FC fusion (human, UniProt P19438 30-211, limits assumed); assay: TNFR1 receptor binding assay: TNFR1-Fc on beads, TNF-alpha 10 ng/ml, ABI 8200; average of 3 experiments
T2 construct: not shown: Fc part, captured by goat anti-human IgG; not described further
T2 sequence (looked up): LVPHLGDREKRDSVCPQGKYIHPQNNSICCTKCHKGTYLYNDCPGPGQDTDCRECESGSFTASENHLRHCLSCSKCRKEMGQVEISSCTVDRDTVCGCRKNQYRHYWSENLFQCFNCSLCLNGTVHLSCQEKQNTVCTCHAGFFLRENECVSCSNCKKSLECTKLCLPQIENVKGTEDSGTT

[7] = target: T3, human TNFR1, soluble recombinant protein (human, UniProt P19438 22-211, limits assumed, biotinylated in the BIAcore assays (coupling via primary amines)); assay: BIAcore 3000, dAb over biotinylated human TNFR1 (1400 RU) on SA chip, 1:1 fit, 25 C, mean of 3 experiments
T3 construct: also called biotinylated TNFR1; human recombinant E. coli-expressed human TNFR1
T3 sequence (looked up): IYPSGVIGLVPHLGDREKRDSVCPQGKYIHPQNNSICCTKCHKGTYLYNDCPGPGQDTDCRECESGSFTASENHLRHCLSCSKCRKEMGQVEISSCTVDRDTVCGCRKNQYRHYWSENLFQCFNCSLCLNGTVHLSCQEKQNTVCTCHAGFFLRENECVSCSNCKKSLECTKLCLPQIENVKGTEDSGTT

TNFR1-FC fusion [8] = target: T2, TNFR1-FC fusion; assay: TNFR-1 receptor binding assay (RBA): inhibition of the binding of TNF-alpha to TNFR1 by the dAb; T0 sample
TNFR1-FC fusion [9] = target: T2, TNFR1-FC fusion; assay: TNFR-1 receptor binding assay (RBA): inhibition of the binding of TNF-alpha to TNFR1 by the dAb; sample after 14 days at 50 C in Britton-Robinson buffer, concentration assumed to be 1 mg/ml
TNFR1 on MRC-5 cells = target: T4, TNFR1 on MRC-5 cells (UniProt P19438 30-455, limits assumed); assay: cell-based or functional assay
T4 sequence (looked up): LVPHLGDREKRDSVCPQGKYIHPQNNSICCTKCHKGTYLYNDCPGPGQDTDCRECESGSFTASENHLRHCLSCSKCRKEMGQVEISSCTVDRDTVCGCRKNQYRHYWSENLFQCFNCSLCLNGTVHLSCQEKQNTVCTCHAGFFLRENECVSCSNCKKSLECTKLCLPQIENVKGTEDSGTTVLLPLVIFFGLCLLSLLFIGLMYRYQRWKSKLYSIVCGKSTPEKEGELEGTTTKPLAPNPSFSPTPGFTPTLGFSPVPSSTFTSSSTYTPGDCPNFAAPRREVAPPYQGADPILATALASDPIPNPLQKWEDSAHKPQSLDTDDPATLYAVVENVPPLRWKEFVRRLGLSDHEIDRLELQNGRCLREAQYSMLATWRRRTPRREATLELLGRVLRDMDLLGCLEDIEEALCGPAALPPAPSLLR

TNFR1-FC fusion [10] = target: T2, TNFR1-FC fusion; assay: human TNFR1 receptor binding assay; dAb blocks binding of TNF-alpha (10 ng/ml) to bead-captured TNFR1-Fc; four replicates
[11] = target: the molecule itself; assay: analytical ultracentrifugation, sedimentation equilibrium; monomer/dimer self-association; self-association (monomer to dimer) of the dAb by AUC sedimentation equilibrium, 0.5 mg/ml to 5 mg/ml
[12] = target: the molecule itself; assay: analytical ultracentrifugation, sedimentation equilibrium; self-association
IL-1R1 = target: T5, IL-1R1 (UniProt P14778 18-332, limits assumed); assay: Receptor Binding Assay, inhibition of IL-1 binding to IL-R1
T5 construct: also called IL-R1
T5 sequence (looked up): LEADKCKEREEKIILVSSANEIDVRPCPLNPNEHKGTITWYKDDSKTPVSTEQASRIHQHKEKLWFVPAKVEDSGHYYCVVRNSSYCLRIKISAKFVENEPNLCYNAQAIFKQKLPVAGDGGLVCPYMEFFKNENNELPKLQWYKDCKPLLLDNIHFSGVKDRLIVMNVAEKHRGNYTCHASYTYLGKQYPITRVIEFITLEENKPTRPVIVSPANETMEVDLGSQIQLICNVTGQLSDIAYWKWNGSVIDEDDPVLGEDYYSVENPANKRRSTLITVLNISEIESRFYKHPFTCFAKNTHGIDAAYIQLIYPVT

T1 sequence (P15692 other isoform, or with tags, fused parts or gaps limits assumed): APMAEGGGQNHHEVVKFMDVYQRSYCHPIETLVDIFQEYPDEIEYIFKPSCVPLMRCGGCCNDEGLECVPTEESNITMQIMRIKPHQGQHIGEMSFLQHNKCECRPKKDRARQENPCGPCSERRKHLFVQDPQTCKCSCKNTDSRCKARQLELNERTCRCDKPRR

Kd (recombinant human VEGF [1]): 23.6 nM | EC50 (recombinant human VEGF [2]): 10.2 nM
B1: DOM15-10 (other)
VL: DIQMTQSPSSLSASVGDRVTITCRASQWIGPELSWYQQKPGKAPKLLIYHTSILQSGVPSRFSGSGSGTDFTLTISSLQPEDFATYYCQQYMFQPRTFGQGTKVEIRR
notes: VK dAb against VEGF

Activity (nM), RBA assay (recombinant human VEGF [3]): 0.913 nM
B2: DMS1546 (Fc fusion)
VL: DIQMTQSPSSLSASVGDRVTITCRASQWIGPELSWYQQKPGKAPKLLIYHTSILQSGVPSRFSGSGSGTDFTLTISSLQPEDFATYYCQQYMFQPRTFGQGTKVEIRR
modifications: disulfide-linked homodimer of this chain (bivalent dAb-Fc)
notes: dAb-Fc; also called DOM15-10 Fc fusion; not shown: TVAAPS linker and human IgG1 Fc

Kd (recombinant human VEGF [1]): 14.6 nM | EC50 (recombinant human VEGF [2]): 3.58 nM
B3: DOM15-10-11 (other)
VL: DIQMTQSPSSLSASVGDRVTITCRASQWIGPELRWYQQKPGKAPKLLIYHTSILQSGVPSRFSGSGSGTDFTLTISSLQPEDFATYYCQQYMFQPMTFGQGTKVEIRG
notes: VK dAb against VEGF, trypsin-selected variant of DOM15-10

Activity (nM), RBA assay (recombinant human VEGF [3]): 0.577 nM
B4: DMS1531 (Fc fusion)
VL: DIQMTQSPSSLSASVGDRVTITCRASQWIGPELRWYQQKPGKAPKLLIYHTSILQSGVPSRFSGSGSGTDFTLTISSLQPEDFATYYCQQYMFQPMTFGQGTKVEIRG
modifications: disulfide-linked homodimer of this chain (bivalent dAb-Fc)
notes: dAb-Fc; also called DOM15-10-11 Fc fusion; not shown: TVAAPS linker and human IgG1 Fc

EC50 (TNFR1-FC fusion [6]): 0.11 nM | Kd [7]: 0.55 nM | IC50 (read off the curve) (TNFR1-FC fusion [8]): ~0.1 nM | IC50 (read off the curve) (TNFR1-FC fusion [9]): ~0.1 nM
B5: DOM1h-131-202 (other)
VH: EVQLLESGGGLVQPGGSLRLSCAASGFTFAHETMVWVRQAPGKGLEWVSHIPPDGQDPFYADSVKGRFTISRDNSKNTLYLQMNSLRAEDTAVYYCALLPKRGPWFDYWGQGTLVTVSS
notes: human VH dAb against TNFR1; also called GSK1922567A
Kd [4]: 1000 nM | Kd [5]: 1300 nM

ND50 nM, MRC-5 cell-based assay (230307CE) (TNFR1 on MRC-5 cells): 0.71 nM | EC50 (TNFR1-FC fusion [6]): 0.07 nM | Kd [7]: 0.47 nM | IC50 (read off the curve) (TNFR1-FC fusion [10]): ~0.07 nM
B6: DOM1h-131-206 (other)
VH: EVQLLESGGGLVQPGGSLRLSCAASGFTFAHETMVWVRQAPGKGLEWVSHIPPDGQDPFYADSVKGRFTISRDNSKNTLYLQMNSLRAEDTAVYHCALLPKRGPWFDYWGQGTLVTVSS
notes: human VH dAb against TNFR1; also called GSK1995057A
Kd [11]: 360000 nM

ND50 nM, MRC-5 cell-based assay (230307CE) (TNFR1 on MRC-5 cells): 1.89 nM
B7: DOM1h-131-204 (other)
VH: EVQLSESGGGLVQPGGSLRLSCAASGFTFAHETMVWVRQAPGKGLEWVSHIPPDGQDPFYADSVKGRFTISRDNSKNTLYLQMNSLRAEDTAVYYCALLPNRGPWFDYWGQGTLVTVSS

ND50 nM, MRC-5 cell-based assay (230307CE) (TNFR1 on MRC-5 cells): 1.89 nM | EC50 (TNFR1-FC fusion [6]): 0.19 nM | Kd [7]: 1.07 nM | IC50 (read off the curve) (TNFR1-FC fusion [10]): ~0.2 nM
B8: DOM1h-131-511 (other)
VH: EVQLLESGGGLVQPGGSLRLSCAASGFTFAHETMVWVRQAPGKGLEWVSHIPPVGQDPFYADSVKGRFTISRDNSKNTLYLQMNSLRAEDTAVYYCALLPKRGPWFDYWGQGTLVTVSS
notes: human VH domain antibody (dAb) against TNFR1; also called GSK1995056A
binding result [12]: binds

ND50 nM, MRC-5 cell-based assay (230307CE) (TNFR1 on MRC-5 cells): 2.28 nM
B9: DOM1h-131-203 (other)
VH: EVQLWESGGGLVQPGGSLRLSCAASGFTFAHETMVWVRQAPGKGLEWVSHIPPDGQDPFYADSVKGRFTISRDNSKNTLYLQMNSLRAEDTAVYYCALLPKRGPWIDYWGQGTLVTVSS

IC50 (IL-1R1): 0.28 nM
B10: DOM4-130-54 (other)
VL: DIQMTQSPSSLSASVGDRVTITCRASQDIYLNLDWYQQKPGKAPKLLINFGSELQSGVPSRFSGSGYGTDFTLTISSLQPEDFATYYCQPSFYFPYTFGQGTKVEIKR
notes: VK domain antibody (dAb) against IL-1R1

IC50 (IL-1R1): 0.254 nM
B11: DOM4-130-202 (other)
VL: DIQMTQSPSSLSASVGDRVTISCRASQDIYLNLDWYQQKPGKAPKLLISFGSELQSGVPSRFSGSGYGTDFTLTISSLQPEDSATYYCQPSFYYPYTFGQGTKVEIKR
notes: VK dAb against IL-1R1, trypsin-selected variant of DOM4-130-54

IC50 (IL-1R1): 0.257 nM
B12: DOM4-130-201 (other)
VL: DIQMTQSPSSLSASVGDRVTITCRASQDIYLNLDWYQQKPGKAPKLLIKFGSELQSGVPSRFSGSGYGTDFTLTISNLQPEDFATYYCQPSFYFPYTFGQGTKVEIKW
notes: as for B11
